Measured values from paper PMC10565641.

Columns and labels:
[1] = molecular target: Myc-tagged LEF1 (UniProt Q9UJU2); assay: co-immunoprecipitation (anti-FLAG IP, immunoblot densitometry); conditions: HEK293T cells, transfected; densitometry mean of three independent experiments; parent: 1.0
[2] = molecular target: Myc-tagged TCF7L2 (UniProt Q9NQB0); assay: as above; conditions: HEK293T cells, transfected; densitometry mean of three independent experiments; parent: 1.0
Chain of UniProt Q9NQB0 (Q9NQB0 whole entry): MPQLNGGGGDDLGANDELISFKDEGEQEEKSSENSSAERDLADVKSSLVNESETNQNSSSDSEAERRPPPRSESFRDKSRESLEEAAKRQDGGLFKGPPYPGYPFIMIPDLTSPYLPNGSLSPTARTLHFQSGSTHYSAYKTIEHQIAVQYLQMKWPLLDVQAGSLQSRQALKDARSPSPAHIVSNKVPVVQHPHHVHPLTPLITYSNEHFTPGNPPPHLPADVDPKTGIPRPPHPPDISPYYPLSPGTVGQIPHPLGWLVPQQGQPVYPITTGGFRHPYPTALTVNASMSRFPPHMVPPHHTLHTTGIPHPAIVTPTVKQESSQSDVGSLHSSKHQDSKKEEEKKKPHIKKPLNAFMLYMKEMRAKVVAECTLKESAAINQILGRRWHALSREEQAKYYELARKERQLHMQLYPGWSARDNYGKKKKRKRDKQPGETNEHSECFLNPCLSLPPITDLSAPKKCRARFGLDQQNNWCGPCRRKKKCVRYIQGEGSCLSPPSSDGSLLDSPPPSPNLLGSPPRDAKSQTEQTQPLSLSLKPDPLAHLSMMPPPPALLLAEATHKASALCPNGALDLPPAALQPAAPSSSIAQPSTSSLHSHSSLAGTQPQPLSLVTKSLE

Chain of UniProt Q9UJU2 (Q9UJU2 whole entry): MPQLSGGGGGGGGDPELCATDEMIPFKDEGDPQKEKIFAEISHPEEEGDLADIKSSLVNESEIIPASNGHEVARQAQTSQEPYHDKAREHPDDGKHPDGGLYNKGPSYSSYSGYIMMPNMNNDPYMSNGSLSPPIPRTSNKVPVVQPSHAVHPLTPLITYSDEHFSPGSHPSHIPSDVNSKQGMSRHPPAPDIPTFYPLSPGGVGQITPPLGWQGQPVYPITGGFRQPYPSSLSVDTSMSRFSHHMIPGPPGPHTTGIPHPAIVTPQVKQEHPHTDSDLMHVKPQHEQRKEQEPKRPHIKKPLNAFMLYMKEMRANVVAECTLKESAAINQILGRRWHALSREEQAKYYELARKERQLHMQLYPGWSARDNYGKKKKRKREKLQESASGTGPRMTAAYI

FLAG-V5-tagged FBXW7α, wild type (from UniProt Q969H0) WD40 (three arginine residues within one WD40 repeat mutated; lane label WD)
ratio to parent [1]: 0.44 | ratio to parent [2]: 0.17
